This is an account of results in US20240092922A1 (EUCURE BEIJING BIOPHARMA, published 2024).

T1: monkey (Rhesus macaque) 4-1BB (r4-1BB) on transfected CHO cells (monkey (Rhesus macaque), UniProt Q07011 24-255 (human entry))
T1 construct: also called rm4-1BB; CHO-r4-1BB
T1 chain: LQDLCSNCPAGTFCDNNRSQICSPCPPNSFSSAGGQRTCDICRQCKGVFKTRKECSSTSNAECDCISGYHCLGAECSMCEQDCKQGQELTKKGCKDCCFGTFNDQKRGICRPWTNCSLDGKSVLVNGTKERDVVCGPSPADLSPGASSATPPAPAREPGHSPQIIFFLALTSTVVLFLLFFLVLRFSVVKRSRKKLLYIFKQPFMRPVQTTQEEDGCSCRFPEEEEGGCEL

B1: 45-8F1 (antibody, V domains shown)
VH: EVQLQQSGTVLARPGASVKMSCKASGYSFTSYWMHWVKQRPGQGLEWIGVIYPGNSDTSYNQKFKGKAKLTAVTSASTAYMDLSSLTNEDSAVYYCTRGITTAPDYWGQGTTLTVSS
VL: NIVMTQSPKSMSMSVGERVTLSCKASENVGIHVSWYQQKPEQSPKLLIYGASSGYNGVPDRFTGSGSATDFTLTISSVQPEDLADYHCGQTYSYPFTFGSGTKLEIK
notes: mouse antibody purified from ascites
B2: 29-6A5 (antibody, V domains shown)
VH: QVQLQQPGAELVRPGASVKLSCKASGYTFSSYWINWVKQRPGQGLEWIGNIYPSDSYTNYNQKFKDKATLTVDKSSSTAYMQLSSPTSDDSAVYYCTRTWEFYYDSVFDYWGQGTTLTVSS
VL: DIKMTQSPSSMYASLGERVTITCKASQDINSYLSWFQQKPGKSPKTLIYRANRLVDGVPSRFSGSGSGQDYSLTISSLEYEDMGIYYCLQYDELPPTFGGGTKLEIK
notes: as for B1
B3: 45-8E2 (antibody, V domains shown)
VH: EVKLLESGGGLVQPGGSLKLSCAASGFDFSRYWMSWVRQAPGKGLEWIGEIHPDSSAINYTPSLKDKFIISRDNAKNTLYLQMSKVRSEDTALYYCARSYYGRVFDYWGQGTTLTVSS
VL: DIVMTQSPATLSVTPGDRVSLSCRASQSISDYLHWYQQKSHESPRLLIKYASQSISGIPPRFSGSGSGSDFTLSINSVEPEDVGMYYCQDGHSFPPTFGAGTKLELK
notes: as for B1
B4: 45-7E9 (antibody, V domains shown)
VH: QVQLKQSGPGLVQPSQSLSITCTVSGFSLTTYGVHWVRQPPGKGLEWLGVIWSDGNTDYNDAFISRLSITKDNSTSQVFFKMNGLQADDTAIYYCARNSITSVSFDCWGQGTTLTVSS
VL: DIVMTQSQKFMSTSVGDRVSVTCKASQNVGTTVAWYQQRPGQSPKALICSASYRYSGVPDRFTGSGSGTDFTLTISNVQSEDLAEYFCQQYNSYPLTFGSGTKLEIK
notes: as for B1
B5: 45-2B3 (antibody, V domains shown)
VH: QVQLQQSGPELVKPGASVKISCKTSGYAFSTSWMNWVKQRPGQGLEWIGRIYPGDGDTDYNGRFKGKATLTADKSSSTAYLQLSSLTSVDSAVYFCARLDGYYEVFYFDYWGQGTTLTVSS
VL: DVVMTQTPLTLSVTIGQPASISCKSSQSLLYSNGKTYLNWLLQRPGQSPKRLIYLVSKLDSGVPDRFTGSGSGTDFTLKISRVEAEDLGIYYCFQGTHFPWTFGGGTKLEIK
notes: as for B1
B6: 45-7G9 (antibody, V domains shown)
VH: QVQLQQPGSALVRPGASVKLSCKASGYTFSNYWIHWVKQRHGQGLEWIGNIYPASDYTNYDEKFKNKGTLTVDTSSSTAYMHLSSLTSEDSAVYYCSRGYFGSLDYWGQGTSVTVSA
VL: DILLTQSPAILSVNPGERVSFSCRASQPIGTGIHWYQQRTNGSPRLLIKSASESISGIPSRFSGSGSGTDFTLTINNVESDDVGDYYCQQSYSWPTTFGGGTKLKIN
notes: as for B1
B7: 45-4B9 (antibody, V domains shown)
VH: EVQLQQSGPELVKPGASVKMSCKASGYTFTTYVMYWVKQRPGQGLEWIGYINPYNDDIRYNEKFKGKATLTSDRSSSTAYMELSSLTSEDSAVYLCARQGGDYWGQGTILTVSS
VL: DVQITQSPSYLAASPGETITVNCRASKNINKYLAWYQEKPGKTNKLLIYSGSTLQSGIPSRFSGSGSGTDFTLTISSLEPEDFAVYHCQQYNEYPLTFGAGTKLEMK
notes: as for B1
B8: 56-2A6 (antibody, V domains shown)
VH: QIQLVQSGPELKKPGETVKISCKASGYTFTNYGMNWVKQAPGKGFKWMGWINTYTGEPTYADDFKGRFAFSLEISASTAYLQINNLKNEDTATYFCARRDYLGAMDYWGQGTSVTVSS
VL: ENVLTQSPAIMSASPGEKVTMTCRASSSVSSSYLHWYQQKSGASPKLWIYSTSNLASGVPARFSGSGSGTSYSLTISSVEAEDAATYYCQQYSAYLYTFGGGTKLEIK
notes: as for B1
B9: 6A5-H3K2-IgG2 (antibody, V domains shown)
VH: QVQLVQSGAEVKKPGSSVKLSCKASGYTFSSYWINWVKQAPGQGLEWIGNIYPSDSYTNYNQKFKDKATLTVDKSTSTAYMELSSLRSEDTAVYYCTRTWEFYYDSVFDYWGQGTTLTVSS
VL: DIQMTQSPSSLSASLGERVTITCKASQDINSYLSWYQQKPGKAPKTLIYRANRLVDGVPSRFSGSGSGQDFTLTISSLQPEDIATYYCLQYDELPPTFGGGTKVEIK
notes: humanized
B10: 6A5-H3K1-IgG2 (antibody, V domains shown)
VH: B9 VH
VL: B9 VL with T46L
notes: humanized
B11: 6A5-H3K3-IgG2 (antibody, V domains shown)
VH: B9 VH
VL: B9 VL with Y36F
notes: humanized
B12: 6A5-H2K4-IgG2 (antibody, V domains shown)
VH: B9 VH with K38R, K67R, T116L, L117V
VL: B9 VL with Y36F, F71Y, V104L
notes: humanized
B13: 6A5-H3K4-IgG2 (antibody, V domains shown)
VH: B9 VH
VL: B9 VL with Y36F, F71Y, V104L
notes: humanized

Changes are numbered by the printed parent chain.
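Throughout, for Kd: dissociation phase followed for 300 s, Kd derived as koff divided by kon from the kinetic fit.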
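Throughout, for koff: dissociation phase followed for 300 s, Kd derived as koff divided by kon from the kinetic fit.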
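Throughout, for kon: dissociation phase followed for 300 s, Kd derived as koff divided by kon from the kinetic fit.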

In one experiment the target is T1, monkey (Rhesus macaque) 4-1BB (r4-1BB) …. As to the kind of experiment: flow cytometry on transfected CHO cells.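 Note: antibodies tested at 1 µg/ml on CHO cells for 30 min at 4 °C, binding detected with FITC- or PE-labeled anti-mouse IgG Fc secondary by flow cytometry.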
Experimental: (§1) 25 μl CHO cells were added to each well. 25 μl purified anti-h4-1BB antibodies (1 μg/ml) were added to each well and were incubated at 4° C. for 30 minutes.
(§2) After being washed with PBS (1200 rmp, 5 min) twice, 50 μl of FITC labeled anti-mouse IgG Fc antibody (anti-mIgG Fc-FITC) was added into each well at 1:100 dilution, followed by incubating at 4° C. for 30 minutes, and then PBS wash (1200 rmp, 5 min). In some cases, PE labeled anti-mouse IgG Fc antibody (anti-mIgG Fc-PE) was used to label the antibody instead, and was added into each tested well at 1:500 dilution. The signals for FITC and PE were determined by flow cytometry.
Turning to B1, the binding result was “binds”.
The same measure, in the same setting: to B2 belongs “binds”; to B3, “binds”; to B4, “binds”.
On the same count and under the same terms, for B5 the value was “binds”.
As for B6, the binding result is “binds”.
The same measure, in the same setting: for B7 the value was “binds”.

For a further experiment, the target named is T2, chimeric (mouse and human) 4-1BB (c4-1BB) on transfected CHO cells (chimeric (mouse and human)).
T2 construct: also called chi4-1BB; CHO-c4-1BB
Kind of experiment: flow cytometry on transfected CHO cells. (In general: A flow cytometer gives signals particle by particle.)
Experimental: as §1, §2
On to B1, for which the binding result is on record as “binds”.
On the same count and under the same terms, for B2 the value was “binds”.
For B8, the binding result is “binds”.
The same measure, in the same setting: to B3 belongs “binds”; to B4, “binds”; to B5, “binds”.
Take B6: the binding result is “binds”.
Same read-out and setting: to B7 belongs “binds”.

The target of the next experiment is T3, mouse 4-1BB (m4-1BB) on transfected CHO cells (mouse, UniProt P20334 24-256).
T3 construct: also called CHO-m4-1BB
As to the kind of experiment: flow cytometry on CHO cells transfected with mouse 4-1BB.
Experimental: as §1, §2
With B1, the binding result was “no binding (tested: 1 µg/ml)”.
On the same count and under the same terms, to B2 belongs “no binding (tested: 1 µg/ml)”.
Take B8: the binding result is recorded as “no binding (tested: 1 µg/ml)”.
As for B3, the binding result was “no binding (tested: 1 µg/ml)”.
Regarding B4, the binding result is reported as “no binding (tested: 1 µg/ml)”.
Same read-out and setting: for B5 the value was “no binding (tested: 1 µg/ml)”; for B6, “no binding (tested: 1 µg/ml)”.
Same read-out and setting: for B7 the value was “no binding (tested: 1 µg/ml)”.

The next experiment addresses T4, Histidine-tagged human 4-1BB protein (h4-1BB-His) (human, UniProt Q07011 24-186).
T4 construct: not shown: histidine tag
As to the kind of experiment: SPR (Biacore T200), antibody on Protein A chip, h4-1BB-His injected. (In general: In SPR one partner is held on a chip, and binding of the other changes the refractive index at the surface.)
Take B9: binding was characterised by a dissociation constant (Kd) of 0.402 nM; the dissociation rate constant (koff) (commonly the rate constant with which the complex falls apart) was 0.000825 s⁻¹; the kon (as a rule, the rate constant with which the complex forms) is 2.05e+06 M⁻¹ s⁻¹.
Take B10: the dissociation constant Kd (as a rule, a measure of binding affinity in units of concentration) was found to be 2.78 nM; the koff was found to be 0.00181 s⁻¹; the kon worked out at 650000 M⁻¹ s⁻¹.
The like results for B11 were, in that order, 0.252 nM, 0.000538 s⁻¹ and 2.14e+06 M⁻¹ s⁻¹.
The like results for B12 were, in that order, 0.26 nM, 0.000581 s⁻¹ and 2.24e+06 M⁻¹ s⁻¹.
The like results for B13 were, in that order, 0.4 nM, 0.000747 s⁻¹ and 1.87e+06 M⁻¹ s⁻¹.

The target of another experiment is T5, human 4-1BB (h4-1BB) on transiently transfected CHO cells (human, UniProt Q07011 24-255).
T5 construct: also called TNFRSF9; CD137
Kind of experiment: flow cytometry, CHO cells transfected with human 4-1BB, antibody at 1 µg/ml.
Experimental: (§3) 25 μl CHO cells transiently transfected with human 4-1BB were added to each well in a plate. The purified antibodies were titrated to final concentrations of 10, 1, 0.1, 0.01, 0.001 μg/ml. The titrated antibodies were added to each well at 4° C. and incubated for 30 minutes.
(§4) After being washed with phosphate-buffered saline (PBS) (1200 rpm, 5 minutes) twice, 50 μl of FITC labeled anti-mouse IgG Fc antibody (anti-mIgG Fc-FITC) at 1:100 dilution was added into each well, and incubated for 30 minutes at 4° C., followed by PBS wash (1200 rpm, 5 minutes). The signal for FITC was detected by flow cytometry.
As to B1, the “percentage of cells with FITC signal” value came to 56.1%.
For the molecule B2, the “percentage of cells with FITC signal” value stood at 73.4%.
Turning to B8, the “percentage of cells with FITC signal” value is 40.9%.
As for B3, the “percentage of cells with FITC signal” value turned out to be 60.1%.
The same measure, in the same setting: to B4 belongs 58.4%.
The same measure, in the same setting: to B5 belongs 51.8%.
For B6, the “percentage of cells with FITC signal” value came out at 55.1%.
Consider B7, for which the “percentage of cells with FITC signal” value was found to be 49.3%.

The target of the next experiment is T5, human 4-1BB (h4-1BB) on transiently …. As to the kind of experiment: flow cytometry, CHO cells transfected with human 4-1BB, antibody at 10 µg/ml.
Experimental: as §3, §4
On to B1, for which the “percentage of cells with FITC signal” value was 58.6%.
B2: the “percentage of cells with FITC signal” value was 80.5%.
Take B8: the “percentage of cells with FITC signal” value stood at 46.6%.
Turning to B3, the “percentage of cells with FITC signal” value came to 58.9%.
B4: the “percentage of cells with FITC signal” value came out at 57.6%.
Regarding B5, the “percentage of cells with FITC signal” value worked out at 62.2%.
The same measure, in the same setting: for B6 the value was 57.9%.
Same read-out and setting: for B7 the value was 56.2%.

The next experiment has the same target. As to the kind of experiment: flow cytometry, CHO cells transfected with human 4-1BB, antibody at 0.1 µg/ml.
Experimental: as §3, §4
With B1, the “percentage of cells with FITC signal” value was found to be 43.9%.
The same measure, in the same setting: to B2 belongs 70.8%.
Regarding B8, the “percentage of cells with FITC signal” value is 17.1%.
On the same count and under the same terms, for B3 the value was 49.8%; for B4, 50%.
On to B5, for which the “percentage of cells with FITC signal” value is 12%.
The same measure, in the same setting: to B6 belongs 25.9%.
As to B7, the “percentage of cells with FITC signal” value was found to be 10.4%.

Another experiment has the same target. Kind of experiment: flow cytometry, CHO cells transfected with human 4-1BB, antibody at 0.01 µg/ml.
Experimental: as §3, §4
Regarding B1, the “percentage of cells with FITC signal” value amounted to 6.21%.
On the same count and under the same terms, to B2 belongs 47.4%; to B8, 0.89%.
Still for that read-out and setting: for B3 the value was 9.06%; for B4, 12.7%; for B5, 0.622%.
On to B6, for which the “percentage of cells with FITC signal” value worked out at 0.96%.
Still for that read-out and setting: for B7 the value was 1.2%.

The target is the same in the next experiment. Kind of experiment: flow cytometry, CHO cells transfected with human 4-1BB, antibody at 0.001 µg/ml.
Experimental: as §3, §4
Turning to B1, the “percentage of cells with FITC signal” value was 1.38%.
B8: the “percentage of cells with FITC signal” value was 0.25%.
On the same count and under the same terms, for B3 the value was 1.52%.
The same measure, in the same setting: for B4 the value was 0.703%; for B5, 0.504%; for B6, 1%.
In the case of B7, the “percentage of cells with FITC signal” value was 1.86%.
